B1: his-MutL (natural protein, E. coli, UniProt P23367 1-615, looked up)
chain: MPIQVLPPQLANQIAAGEVVERPASVVKELVENSLDAGATRIDIDIERGGAKLIRIRDNGCGIKKDELALALARHATSKIASLDDLEAIISLGFRGEALASISSVSRLTLTSRTAEQQEAWQAYAEGRDMNVTVKPAAHPVGTTLEVLDLFYNTPARRKFLRTEKTEFNHIDEIIRRIALARFDVTINLSHNGKIVRQYRAVPEGGQKERRLGAICGTAFLEQALAIEWQHGDLTLRGWVADPNHTTPALAEIQYCYVNGRMMRDRLINHAIRQACEDKLGADQQPAFVLYLEIDPHQVDVNVHPAKHEVRFHQSRLVHDFIYQGVLSVLQQQLETPLPLDDEPQPAPRSIPENRVAAGRNHFAEPAAREPVAPRYTPAPASGSRPAAPWPNAQPGYQKQQGEVYRQLLQTPAPMQKLKAPEPQEPALAANSQSFGRVLTIVHSDCALLERDGNISLLSLPVAERWLRQAQLTPGEAPVCAQPLLIPLRLKVSAEEKSALEKAQSALAELGIDFQSDAQHVTIRAVPLPLRQQNLQILIPELIGYLAKQSVFEPGNIAQWIARNLMSEHAQWSMAQAITLLADVERLCPQLVKTPPGGLLQSVDLHPAIKALKDE
B2: MutS (natural protein, E. coli, UniProt P23909 1-853, looked up)
chain: MSAIENFDAHTPMMQQYLRLKAQHPEILLFYRMGDFYELFYDDAKRASQLLDISLTKRGASAGEPIPMAGIPYHAVENYLAKLVNQGESVAICEQIGDPATSKGPVERKVVRIVTPGTISDEALLQERQDNLLAAIWQDSKGFGYATLDISSGRFRLSEPADRETMAAELQRTNPAELLYAEDFAEMSLIEGRRGLRRRPLWEFEIDTARQQLNLQFGTRDLVGFGVENAPRGLCAAGCLLQYAKDTQRTTLPHIRSITMEREQDSIIMDAATRRNLEITQNLAGGAENTLASVLDCTVTPMGSRMLKRWLHMPVRDTRVLLERQQTIGALQDFTAGLQPVLRQVGDLERILARLALRTARPRDLARMRHAFQQLPELRAQLETVDSAPVQALREKMGEFAELRDLLERAIIDTPPVLVRDGGVIASGYNEELDEWRALADGATDYLERLEVRERERTGLDTLKVGFNAVHGYYIQISRGQSHLAPINYMRRQTLKNAERYIIPELKEYEDKVLTSKGKALALEKQLYEELFDLLLPHLEALQQSASALAELDVLVNLAERAYTLNYTCPTFIDKPGIRITEGRHPVVEQVLNEPFIANPLNLSPQRRMLIITGPNMGGKSTYMRQTALIALMAYIGSYVPAQKVEIGPIDRIFTRVGAADDLASGRSTFMVEMTETANILHNATEYSLVLMDEIGRGTSTYDGLSLAWACAENLANKIKALTLFATHYFELTQLPEKMEGVANVHLDALEHGDTIAFMHSVQDGAASKSYGLAVAALAGVPKEVIKRARQKLRELESISPNAAATQVDGTQMSLLSVPEETSPAVEALENLDPDSLTPRQALEWIYRLKSLV

In the data set “MutS” the target is B2. The experiment in a line: atomic force microscopy.
The data set “atomic force microscopy” deals with the molecule itself. The experiment in a line: atomic force microscopy.

Several values for one entry are separate records, joined by “and”; a condition that tells them apart may be missing. Equal values may be shown once.

On to B1, for which the binding result in the data set with MutS is given as “binds”. In the case of B2, in “atomic force microscopy”, the “stoichiometry N” value was 2 and 4.

These data come from PMC4651853 (DNA repair, 2015).
